# In ChEMBL document CHEMBL1136774, “Pharmacophore and quantitative structure-activity relationship modeling: complementary approaches for the rationalization and prediction of UDP-glucuronosyltransferase 1A4 substrate selectivity” (J Med Chem, 2003):
# How the values were obtained:
# [1] = target: UGT1A4 (UDP-glucuronosyltransferase 1A4) (Homo sapiens, UniProt P22310); experiment: (§1) Binding affinity against human UDP Glucuronosyltransferase 1A4 (UGT1A4); details: read-out: Km,app
# [2] = substrate: C[C@@H]1CC[C@@]2(OC1)O[C@H]1C[C@H]3[C@@H]4CC=C5C[C@@H](O)CC[C@]5(C)[C@H]4CC[C@]3(C)[C@H]1[C@@H]2C; experiment: as §1
# [3] = substrate: O=c1c(-c2ccc(O)cc2)coc2cc(O)ccc12; experiment: as §1
# [4] = substrate: Cc1ccc(C(C)C)cc1O; experiment: as §1
# [5] = substrate: CN1CCC(=C2c3ccccc3C=Cc3ccccc32)CC1; experiment: as §1
# [6] = substrate: CN(C)CCC=C1c2ccccc2CCc2ccccc21; experiment: as §1
# [7] = substrate: [H][C@@]12CC[C@]3([H])[C@]([H])(CC[C@@]4(C)[C@@]3([H])CC[C@]4([H])[C@H](C)O)[C@@]1(C)CC[C@H](O)C2; experiment: as §1
# [8] = substrate: CN(C)CCCN1c2ccccc2CCc2ccccc21; experiment: as §1
# [9] = substrate: Nc1ccc(-c2ccc(N)cc2)cc1; experiment: as §1
# [10] = substrate: c1ccc(Nc2ccccc2)cc1; experiment: as §1
# [11] = substrate: O=[N+]([O-])c1ccc(O)cc1; experiment: as §1
# [12] = substrate: CN1CCN(C2=Nc3ccccc3Oc3ccc(Cl)cc32)CC1; experiment: as §1
# [13] = substrate: Nc1ccccc1-c1ccccc1; experiment: as §1
# [14] = substrate: C[C@@H]1CC[C@@]2(OC1)O[C@H]1C[C@H]3[C@@H]4CC[C@@]5(C)C[C@@H](O)CC[C@]5(C)[C@H]4CC(=O)[C@]3(C)[C@H]1[C@@H]2C; experiment: as §1
# [15] = substrate: CN1CCC(=C2c3ccccc3CC(=O)c3sccc32)CC1; experiment: as §1
# [16] = substrate: C[C@@H]1CC[C@@]2(OC1)O[C@H]1C[C@H]3[C@@H]4CC[C@H]5C[C@@H](O)CC[C@]5(C)[C@H]4CC[C@]3(C)[C@H]1[C@@H]2C; experiment: as §1
# [17] = substrate: Nc1ccc(-c2ccccc2)cc1; experiment: as §1
# [18] = substrate: Clc1ccc2c(c1)N=C(N1CCNCC1)c1ccccc1N2; experiment: as §1
# [19] = substrate: C=CCc1ccc(O)c(OC)c1; experiment: as §1
# [20] = substrate: CC1CC[C@H](C(C)C)[C@@H](O)C1; experiment: as §1
# [21] = substrate: CN1CCN(C2=Nc3cc(Cl)ccc3Nc3ccccc32)CC1; experiment: as §1
# [22] = substrate: [H][C@@]12CC[C@]3([H])[C@]([H])(CC[C@]4(C)C(C)(O)CC[C@@]34[H])[C@@]1(C)CCC(O)C2; experiment: as §1
# [23] = substrate: CC1(C)[C@H]2CC[C@]1(C)[C@H](O)C2; experiment: as §1
# [24] = substrate: CCOC(=O)Nc1ccc(NCc2ccc(F)cc2)cc1N; experiment: as §1
molecule,measurement,setting,value
CN(C)CCCN1c2ccccc2Sc2ccc(Cl)cc21 [CHLORPROMAZINE],Km,[1],93 µM
UDP-glucuronosyltransferase 1A4 (Homo sapiens) (protein) MARGLQVPLPRLATGLLLLLSVQPWAESGKVLVVPTDGSPWLSMREALRELHARGHQAVVLTPEVNMHIKEEKFFTLTAYAVPWTQKEFDRVTLGYTQGFFETEHLLKRYSRSMAIMNNVSLALHRCCVELLHNEALIRHLNATSFDVVLTDPVNLCGAVLAKYLSIPAVFFWRYIPCDLDFKGTQCPNPSSYIPKLLTTNSDHMTFLQRVKNMLYPLALSYICHTFSAPYASLASELFQREVSVVDLVSYASVWLFRGDFVMDYPRPIMPNMVFIGGINCANGKPLSQEFEAYINASGEHGIVVFSLGSMVSEIPEKKAMAIADALGKIPQTVLWRYTGTRPSNLANNTILVKWLPQNDLLGHPMTRAFITHAGSHGVYESICNGVPMVMMPLFGDQMDNAKRMETKGAGVTLNVLEMTSEDLENALKAVINDKSYKENIMRLSSLHKDRPVEPLDLAVFWVEFVMRHKGAPHLRPAAHDLTWYQYHSLDVIGFLLAVVLTVAFITFKCCAYGYRKCLGKKGRVKKAHKSKTH,Km,[2],13 µM
same,Km,[3],400 µM
same,Km,[4],1500 µM
same,Km,[5],150 µM
same,Km,[6],60 µM
same,Km,[7],7.3 µM
same,Km,[8],310 µM
same,Km,[9],460 µM
same,Km,[10],240 µM
same,Km,[11],11600 µM
same,Km,[12],27 µM
same,Km,[13],47 µM
same,Km,[14],18 µM
same,Km,[15],70 µM
same,Km,[16],7 µM
same,Km,[17],66 µM
same,Km,[18],56 µM
same,Km,[19],1570 µM
same,Km,[20],470 µM
same,Km,[21],62 µM
same,Km,[22],16 µM
same,Km,[23],1100 µM
same,Km,[24],322 µM
